From article PMC2651826 (Biochemistry, 2008)
One block for each molecule: values may come before it.

Key:
[1] = target: RS1 from retinal membrane extracts (bovine (endogenous in retinal membranes)); experiment: non-reducing SDS gel electrophoresis with western blot
[2] = target: T1, wild-type RS1 (retinoschisin), secreted from HEK 293 cells (human), O15537; experiment: as above; conditions: remark: other sources report otherwise
T1 chain: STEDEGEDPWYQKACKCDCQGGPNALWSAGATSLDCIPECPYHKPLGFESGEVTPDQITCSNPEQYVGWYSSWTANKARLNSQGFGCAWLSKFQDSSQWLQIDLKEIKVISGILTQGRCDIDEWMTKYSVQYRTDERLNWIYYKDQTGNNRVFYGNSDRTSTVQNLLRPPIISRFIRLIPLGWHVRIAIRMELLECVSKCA

[3] = target: T2, RS1 secreted from Weri-retinoblastoma cells (human (endogenous in Weri-Rb1)), O15537; experiment: as above; conditions: remark: other sources report otherwise
T2 chain: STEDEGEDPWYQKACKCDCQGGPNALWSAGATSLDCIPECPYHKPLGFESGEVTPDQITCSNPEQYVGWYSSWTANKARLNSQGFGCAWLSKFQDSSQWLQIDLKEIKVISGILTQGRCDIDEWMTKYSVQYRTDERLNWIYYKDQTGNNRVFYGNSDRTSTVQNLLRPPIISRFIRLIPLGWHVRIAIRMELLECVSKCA

[4] = target: T3, recombinant RS1 secreted from stably transformed Sf21 insect cells (human), O15537; experiment: as above; conditions: remark: other sources report otherwise
T3 chain: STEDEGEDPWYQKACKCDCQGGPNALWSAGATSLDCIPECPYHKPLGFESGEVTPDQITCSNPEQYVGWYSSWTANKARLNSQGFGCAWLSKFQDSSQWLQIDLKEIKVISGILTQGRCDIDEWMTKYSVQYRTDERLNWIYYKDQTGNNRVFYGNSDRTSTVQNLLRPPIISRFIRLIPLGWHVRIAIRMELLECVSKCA

[5] = target: T3, recombinant RS1 secreted from stably …; experiment: non-reducing SDS gel electrophoresis with Coomassie Blue staining; conditions: remark: other sources report otherwise
[6] = target: the molecule itself; experiment: non-reducing SDS gel electrophoresis with western blot

stoichiometry N [1]: 8
Molecule: RS1 from retinal membrane extracts (natural protein)

stoichiometry N [2]: 8
B1: wild-type RS1 (retinoschisin), secreted from HEK 293 cells, O15537 24-224 (natural protein)
chain: STEDEGEDPWYQKACKCDCQGGPNALWSAGATSLDCIPECPYHKPLGFESGEVTPDQITCSNPEQYVGWYSSWTANKARLNSQGFGCAWLSKFQDSSQWLQIDLKEIKVISGILTQGRCDIDEWMTKYSVQYRTDERLNWIYYKDQTGNNRVFYGNSDRTSTVQNLLRPPIISRFIRLIPLGWHVRIAIRMELLECVSKCA

stoichiometry N [3]: 8
B2: RS1 secreted from Weri-retinoblastoma cells, O15537 24-224 (natural protein)
chain: STEDEGEDPWYQKACKCDCQGGPNALWSAGATSLDCIPECPYHKPLGFESGEVTPDQITCSNPEQYVGWYSSWTANKARLNSQGFGCAWLSKFQDSSQWLQIDLKEIKVISGILTQGRCDIDEWMTKYSVQYRTDERLNWIYYKDQTGNNRVFYGNSDRTSTVQNLLRPPIISRFIRLIPLGWHVRIAIRMELLECVSKCA

stoichiometry N [4]: 8
stoichiometry N [5]: 8
B3: recombinant RS1 secreted from stably transformed Sf21 insect cells, O15537 24-224 (natural protein)
chain: STEDEGEDPWYQKACKCDCQGGPNALWSAGATSLDCIPECPYHKPLGFESGEVTPDQITCSNPEQYVGWYSSWTANKARLNSQGFGCAWLSKFQDSSQWLQIDLKEIKVISGILTQGRCDIDEWMTKYSVQYRTDERLNWIYYKDQTGNNRVFYGNSDRTSTVQNLLRPPIISRFIRLIPLGWHVRIAIRMELLECVSKCA

B4: RS1 C59S/C223S double cysteine mutant (natural protein, human, UniProt O15537 24-224, looked up)
chain: STEDEGEDPWYQKACKCDCQGGPNALWSAGATSLDSIPECPYHKPLGFESGEVTPDQITCSNPEQYVGWYSSWTANKARLNSQGFGCAWLSKFQDSSQWLQIDLKEIKVISGILTQGRCDIDEWMTKYSVQYRTDERLNWIYYKDQTGNNRVFYGNSDRTSTVQNLLRPPIISRFIRLIPLGWHVRIAIRMELLECVSKSA
stoichiometry N [6]: 2
